Assay results as given in paper doi:10.1101/2025.07.29.667540.

Tests used:
[1] = target: CyPet-Ubc9 (UniProt P63279); assay: FRET or BRET
[2] = target: CyPet-NS1 (influenza A virus) (UniProt P03496); assay: FRET or BRET
Sequence of UniProt P03496 (P03496 whole entry): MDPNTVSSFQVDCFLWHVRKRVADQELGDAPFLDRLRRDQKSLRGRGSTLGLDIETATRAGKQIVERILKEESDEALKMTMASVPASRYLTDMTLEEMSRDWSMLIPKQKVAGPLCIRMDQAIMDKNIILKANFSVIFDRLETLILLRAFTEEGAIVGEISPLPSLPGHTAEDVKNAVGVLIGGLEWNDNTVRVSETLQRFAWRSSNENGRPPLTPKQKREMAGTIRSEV

Sequence of UniProt P63279 (P63279 whole entry): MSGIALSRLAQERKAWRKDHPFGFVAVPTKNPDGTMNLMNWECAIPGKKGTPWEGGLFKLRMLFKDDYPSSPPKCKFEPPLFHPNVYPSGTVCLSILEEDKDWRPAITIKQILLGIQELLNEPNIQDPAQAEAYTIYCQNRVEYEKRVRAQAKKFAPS

Substance	Kd [1] [µM]	Kd [2] [µM]
YPet-NS1 (from UniProt P03496 1-230) (natural protein)	4.84	–
YPet-PIAS1 (from UniProt O75925 1-651) (enzyme)	–	2.96
